Experimental data published in patent US20210087291A1 (Hoffmann-La Roche, published 2021).

What was measured:
human TIM-3 on cells [1] = target: T1, human TIM-3 on cells (human, UniProt Q8TDQ0 22-301); assay: cell-based or functional assay
human TIM-3 on cells [2] = target: T1, human TIM-3 on cells; assay: cell-based or functional assay; remark: listed apart in the source
human TIM-3 on cells [3] = target: T1, human TIM-3 on cells; assay: cell-based or functional assay; remark: listed apart in the source
[4] = target: T2, huFc fused dimeric human Tim3-ECD (human, UniProt Q8TDQ0 22-202); assay: SPR Biacore, bivalent Tim3
T2 construct: also called huTim3Fc; bivalent Tim3
Description: (§1) Therefore, an anti-mouse IgG was immobilized by amine coupling to the surface of a (Biacore) CM5 sensor chip. The samples were then captured and hu/cy Tim3-ECD was bound to them. The sensor chip surface was regenerated after each analysis cycle. The equilibrium constant KD was finally gained by fitting the data to a 1:1 langmuir interaction model.
(§2) Flow cell temperature was set to 25° C. and sample compartment temperature to 12° C. The system was primed with running buffer. The samples were injected for 30 seconds with a concentration of 200 μg/ml and bound to the spots 1 and 5 of each flow cell, allowing the measurement of eight samples in parallel. Then a complete set of different (monomeric cyno, monomeric human and huFc fused dimeric human Tim3-ECD) concentrations (s. Table X) was injected over each sample for 240 s followed by a dissociation time of 30/1800 s (s. Table 1). Each analysis cycle (sample capture, spot 1 and 5—Tim3 ECD injection) was then regenerated with a 30 seconds long injection of Glycine-HCl pH 1.7. The flow rate was set to 30 μl/min for the whole run. Finally, the double referenced data was fitted to a 1:1 langmuir interaction model with the Biacore B4000 Evaluation Software.

Tim3-ECD-His-Biotin = target: T3, Tim3-ECD-His-Biotin (human, UniProt Q8TDQ0 22-202); assay: ELISA on Tim3-ECD-His-Biotin
T3 construct: also called human Tim3 (ELISA); Biochem Human
Description: After washing (3×90 μl/well with PBST-buffer) 25 μl aTim3 samples or diluted (1:2 steps) reference antibody aTim3 F38-2E2 (Biolegend) was added and incubated 1 h at RT. After washing (3×90 μl/well with PBST-buffer) 25 μl/well sheep-anti-mouse-POD (GE NA9310V) was added in 1:9000 dilution and incubated at RT for 1 h while shaking at 400 rpm rotation. After washing (4×90 μl/well with PBST-buffer) 25 μl/well TMB substrate (Calbiochem, #CL07) was added and incubated until OD 1.5-2.5. Then the reaction was stopped by addition of 25 μl/well 1N HCL-solution.

human TIM-3 on cells [5] = target: T1, human TIM-3 on cells; assay: cell ELISA, CHO-K1 expressing human Tim3
Description: Then the reaction was stopped by addition of 25 μl/well 1N HCL-solution.

[6] = target: T4, cynomolgus TIM-3 on isolated cyno CD14+ monocytes (cynomolgus); assay: flow cytometry, cyno CD14+ monocytes cyno1
T4 construct: whole, on cells

[7] = target: T4, cynomolgus TIM-3 on isolated cyno CD14+ …; assay: flow cytometry, cyno CD14+ monocytes cyno2
Excerpt: CD14+ Monocytes were isolated from cynomolgus monkey anticoagulated peripheral blood (Covance) by density gradient centrifugation using Ficoll-Paque (GE Healthcare) (see General Protocols in the User Manuals or visit www.miltenyibiotec.com/protocols) and subsequent positive selection via NHP CD14 MicroBeads. First the CD14+ cells are magnetically labeled with CD14 MicroBeads. Then the cell suspension is loaded onto a MACS® Column which is placed in the magnetic field of a MACS Separator. The magnetically labeled CD14+ cells are retained in the column. The unlabeled cells run through, this cell fraction is depleted of CD14+ cells. After removal of the column from the magnetic field, the magnetically retained CD14+ cells can be eluted as the positively selected cell fraction. After centrifugation at 200×g for 10 min at room temperature the monocytes were harvested and used directly in binding assay or resuspended in freezing medium (10% DMSO, 90% FCS) at 1.0E+07 cells/ml and stored in liquid nitrogen.
1×10⁵ CD14+ isolated cyno monocytes (50 μl/well) were put into 98 well-v bottom MTP in fresh culture medium and incubated with Redimune® NF Liquid for 15 min at RT to block unspecific binding. Than 50 μl/well of Alexa488 labeled anti-TIM3 (10 μg/ml in cell culture medium) were added and incubated for 1 h at 4° C. After washing and centrifugation MFI signals of stained cells were analyzed by BD Biosciences FACSCanto flow cytometer.

[8] = target: T4, cynomolgus TIM-3 on isolated cyno CD14+ …; assay: flow cytometry, cyno CD14+ monocytes cyno3
human TIM-3 on cells [9] = target: T1, human TIM-3 on cells; assay: flow cytometry, human CD14+ monocytes donor1
Excerpt: (§3) CD14+ Monocytes were isolated from anticoagulated peripheral blood of healthy donors by density gradient centrifugation using Ficoll-Paque (GE Healthcare) (see General Protocols in the User Manuals or visit www.miltenyibiotec.com/protocols) and subsequent positive selection via CD14 MicroBeads. First the CD14+ cells are magnetically labeled with CD14 MicroBeads. Then the cell suspension is loaded onto a MACS® Column which is placed in the magnetic field of a MACS Separator. The magnetically labeled CD14+ cells are retained in the column. The unlabeled cells run through, this cell fraction is depleted of CD14+ cells. After removal of the column from the magnetic field, the magnetically retained CD14+ cells can be eluted as the positively selected cell fraction. After centrifugation at 200×g for 10 min at room temperature the monocytes were harvested and used directly in binding assay or resuspended in freezing medium (10% DMSO, 90% FCS) at 1.0E+07 cells/ml and stored in liquid nitrogen.
(§4) 1×10⁵ CD14+ isolated human monocytes (50 μl/well) were put into 98 well-v bottom MTP in fresh culture medium and incubated with Redimune® NF Liquid for 15 min at RT to block unspecific binding. […] After washing and centrifugation MFI signals of stained cells were analyzed by BD Biosciences FACSCanto flow cytometer.

human TIM-3 on cells [10] = target: T1, human TIM-3 on cells; assay: flow cytometry, human CD14+ monocytes donor2
Excerpt: as §3, §4

human TIM-3 on cells [11] = target: T1, human TIM-3 on cells; assay: flow cytometry, human CD14+ monocytes donor3
Excerpt: as §3, §4

[12] = target: T2, huFc fused dimeric human Tim3-ECD; assay: SPR Biacore, antibody captured by anti-mouse IgG
Description: as §1, §2

[13] = target: T5, human FolR1 ECD-AcTev-Fcknob-Avi tag + Fc hole, biotinylated monomeric Fc fusion (human, UniProt P0DOX5 223-449 = IgG part); assay: SPR ProteOn, Fab analyte;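 note: recombinant antigens immobilized, purified Fab two-fold dilutions injected in parallel channels, 200 s association and 600 s dissociation, buffer-only channel as in-line reference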
T5 construct: also called huFolR1; huFolR1-Fc
Description: (§5) Immobilization of antigens (ligand): Recombinant antigens were diluted with PBST (10 mM phosphate, 150 mM sodium chloride pH 7.4, 0.005% Tween 20) to 10 μg/ml, then injected at 30 μl/minute in vertical orientation.
(§6) Injection of analytes: For ‘one-shot kinetics’ measurements, injection direction was changed to horizontal orientation, two-fold dilution series of purified Fab (varying concentration ranges) were injected simultaneously along separate channels 1-5, with association times of 200 s, and dissociation times of 600 s. Buffer (PBST) was injected along the sixth channel to provide an “in-line” blank for referencing. Association rate constants (kₒₙ) and dissociation rate constants (koff) were calculated using a simple one-to-one Langmuir binding model in ProteOn Manager v3.1 software by simultaneously fitting the association and dissociation sensorgrams. The equilibrium dissociation constant (KD) was calculated as the ratio koff/kₒₙ.

[14] = target: T6, cynomolgus FolR1 ECD-AcTev-Fcknob-Avi tag + Fc hole, biotinylated monomeric Fc fusion (cynomolgus, UniProt P0DOX5 223-449 = IgG part); assay: SPR ProteOn, Fab analyte;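 note: recombinant antigens immobilized, purified Fab two-fold dilutions injected in parallel channels, 200 s association and 600 s dissociation, buffer-only channel as in-line reference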
T6 construct: also called cyFolR1; cyno FolR1-Fc
Description: as §5, §6

[15] = target: T7, murine FolR1 ECD-AcTev-Fcknob-Avitag + Fc hole, biotinylated monomeric Fc fusion (murine, UniProt P0DOX5 223-449 = IgG part); assay: SPR ProteOn, Fab analyte;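 note: recombinant antigens immobilized, purified Fab two-fold dilutions injected in parallel channels, 200 s association and 600 s dissociation, buffer-only channel as in-line reference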
T7 construct: also called muFolR1; murine FolR1-Fc
Description: as §5, §6

[16] = target: T8, human FolR2 ECD-AcTev-Fcknob-Avi tag + Fc hole, biotinylated monomeric Fc fusion (human, UniProt P0DOX5 223-449 = IgG part); assay: SPR ProteOn, Fab analyte;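 note: recombinant antigens immobilized, purified Fab two-fold dilutions injected in parallel channels, 200 s association and 600 s dissociation, buffer-only channel as in-line reference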
T8 construct: also called huFolR2; FolR2-Fc
Description: as §5, §6

[17] = target: T9, human FolR3 ECD-AcTev-Fcknob-Avi tag + Fc hole, biotinylated monomeric Fc fusion (human, UniProt P0DOX5 223-449 = IgG part); assay: SPR ProteOn, Fab analyte
T9 construct: also called huFolR3; FolR3-Fc
Description: as §5, §6

human TIM-3 on cells [18] = target: T1, human TIM-3 on cells; assay: cell-based or functional assay; remark: listed apart in the source
human TIM-3 on cells [19] = target: T1, human TIM-3 on cells; assay: cell-based or functional assay; remark: listed apart in the source
[20] = target: T6, cynomolgus FolR1 ECD-AcTev-Fcknob-Avi …; assay: SPR, apparent KD, bivalent binding (avidity)
Description: (§7) Binding of FolR1 binders as IgG or in the T-cell bispecific format to different recombinant folate receptors (human FolR1, 2 and 3, murine FolR1 and cynomolgus FolR1; all as Fc fusions) was assessed by surface plasmon resonance (SPR).
Recombinant biotinylated monomeric Fc fusions of human, cynomolgus and murine Folate Receptor 1 (FolR1-Fc) were directly coupled on a SA chip using the standard coupling instruction (Biacore, Freiburg/Germany). The immobilization level was about 300-400 RU. The anti-FolR1 IgGs or T cell bispecifics were passed at a concentration range from 2.1 to 500 nM with a flow of 30 μL/minutes through the flow cells over 180 seconds. The dissociation was monitored for 600 seconds. Bulk refractive index differences were corrected for by subtracting the response obtained on reference flow cell immobilized with recombinant biotinylated IL2 receptor Fc fusion. […] The binding curves resulting from the bivalent binding of the IgGs or T cell bispecifics were approximated to a 1:1 Langmuir binding and fitted with that model (which is not correct, but gives an idea of the avidity). The apparent avidity constants for the interactions were derived from the rate constants of the fitting using the Bia Evaluation software (GE Healthcare).

[21] = target: T6, cynomolgus FolR1 ECD-AcTev-Fcknob-Avi …; assay: SPR, monovalent, antibody captured by anti-Fab
Description: as §7
For affinity measurement, direct coupling of around 6000-7000 resonance units (RU) of the anti-human Fab specific antibody (Fab capture kit, GE Healthcare) was performed on a CM5 chip at pH5.0 using the standard amine coupling kit (GE Healthcare). Anti-FolR1 IgGs or T cell bispecifics were captured at 20 nM with a flow rate of 10 μl/min for 20 or 40 sec, the reference flow cell was left without capture. […] The dissociation phase was monitored for 240 sand triggered by switching from the sample solution to HBS-EP. The chip surface was regenerated after every cycle using a double injection of 60 sec 10 mM Glycine-HCl pH 2.1 or pH1.5. Bulk refractive index differences were corrected for by subtracting the response obtained on the reference flow cell 1. The affinity constants for the interactions were derived from the rate constants by fitting to a 1:1 Langmuir binding using the Bia Evaluation software (GE Healthcare).

[22] = target: T7, murine FolR1 ECD-AcTev-Fcknob-Avitag + …; assay: SPR, IgG single injection
[23] = target: human FolR2 on transiently transfected HEK cells (human, UniProt P14207 17-230); assay: flow cytometry on HEK cells transiently transfected with human FolR2, anti-human secondary antibody; concentration not given
Chain of human FolR2 on transiently transfected HEK cells (P14207 17-230 limits assumed): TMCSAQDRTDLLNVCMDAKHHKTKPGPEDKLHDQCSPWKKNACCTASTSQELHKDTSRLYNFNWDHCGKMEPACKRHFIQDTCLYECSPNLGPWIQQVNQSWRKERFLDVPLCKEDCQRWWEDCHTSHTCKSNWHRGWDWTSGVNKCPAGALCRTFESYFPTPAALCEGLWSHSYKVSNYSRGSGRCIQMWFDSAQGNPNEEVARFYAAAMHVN

B1: Tim3_0033 Fab-PE24 construct (Fab, V domains shown)
VH: QGQMHQSGAELVKPGSSVKLSCKTSGFTFSSSFISWLKQKPGQSLEWIAWIYAATGSTSYNQKFTNKAQLTVDTSSSAAYMQFSSLTTEDSAIYYCARHAGYPHYYAMDYWGQGTSVTVSS
VL: DIQMTQSPASLSASVGETVTITCRASENIFSNLAWYQQKQGKSPQLLVYSATNLGDGVPSRFSGSGSGTQFSLKINSLQPEDFGNYYCQHFYKIPFTFGTGTKLEIK
Max. killing, Pfeiffer cells (human TIM-3 on cells [1]): 99.8%
Max. killing, RPMI-8226 cells (human TIM-3 on cells [1]): 99.7%

B2: Tim3_0033 (antibody, V domains shown)
VH: QGQMHQSGAELVKPGSSVKLSCKTSGFTFSSSFISWLKQKPGQSLEWIAWIYAATGSTSYNQKFTNKAQLTVDTSSSAAYMQFSSLTTEDSAIYYCARHAGYPHYYAMDYWGQGTSVTVSS
VL: DIQMTQSPASLSASVGETVTITCRASENIFSNLAWYQQKQGKSPQLLVYSATNLGDGVPSRFSGSGSGTQFSLKINSLQPEDFGNYYCQHFYKIPFTFGTGTKLEIK
IFN-gamma release in MLR at 1 µg/ml, % of IL-2 control (human TIM-3 on cells [2]): 0%
IFN-gamma release in MLR at 10 µg/ml, % of IL-2 control (human TIM-3 on cells [2]): 30%
IFN-gamma release in MLR at 40 µg/ml, % of IL-2 control (human TIM-3 on cells [2]): 35%
internalization at 30 Min, RPMI-8226 (human TIM-3 on cells [3]): 75%
internalization at 60 Min, RPMI-8226 (human TIM-3 on cells [3]): 81%
internalization at 120 Min, RPMI-8226 (human TIM-3 on cells [3]): 82%
internalization at 240 Min, RPMI-8226 (human TIM-3 on cells [3]): 82%
internalization at 26 h, RPMI-8226 (human TIM-3 on cells [3]): 80%
Kd [4]: 3.1 nM
EC50 (Tim3-ECD-His-Biotin): 1.32 µg/mL
EC50 (human TIM-3 on cells [5]): 3.71 µg/mL
MFI [6]: 71 MFI
MFI [7]: 81 MFI
MFI [8]: 83 MFI
specific binding MFI (human TIM-3 on cells [9]): 480 MFI
specific binding MFI (human TIM-3 on cells [10]): 328 MFI
specific binding MFI (human TIM-3 on cells [11]): 595 MFI
Kd [12]: 3.05 nM

B3: 15B6 Fab (Fab, V domains shown)
VH: QVQLVQSGAEVKKPGASVKVSCKASGYTFTSYYMHWVRQAPGQGLEWMGIINPSGGSTSYAQKFQGRVTMTRDTSTSTVYMELSSLRSEDTAVYYCARNYYIGIVPFDYWGQGTLVTVSS
VL: QAVVTQEPSLTVSPGGTVTLTCGSSTGAVTTSNYANWVQEKPGQAFRGLIGGTNKRAPGTPARFSGSLLGGKAALTLSGAQPEDEAEYYCALWYSNLWVFGGGTKLTVL
Kd [13]: 19.1 nM
Kd [14]: 13.9 nM
binding result [15]: no binding
binding result [16]: no binding
binding result [17]: no binding

B4: 21A5 Fab (Fab, V domains shown)
VH: not shown
VL: QAVVTQEPSLTVSPGGTVTLTCGSSTGAVTTSNYANWVQEKPGQAFRGLIGGTNKRAPGTPARFSGSLLGGKAALTLSGAQPEDEAEYYCALWYSNLWVFGGGTKLTVL
binding result [15]: no binding
binding result [16]: no binding

B5: 21G8 Fab (Fab, V domains shown)
VH: not shown
VL: QAVVTQEPSLTVSPGGTVTLTCGSSTGAVTTSNYANWVQEKPGQAFRGLIGGTNKRAPGTPARFSGSLLGGKAALTLSGAQPEDEAEYYCALWYSNLWVFGGGTKLTVL
binding result [15]: no binding

B6: 16F12 Fab (Fab, V domains shown)
VH: QVQLVQSGAEVKKPGASVKVSCKASGYTFTSYYMHWVRQAPGQGLEWMGIINPSGGSTSYAQKFQGRVTMTRDTSTSTVYMELSSLRSEDTAVYYCARNFTVLRVPFDYWGQGTLVTVSS
VL: QAVVTQEPSLTVSPGGTVTLTCGSSTGAVTTSNYANWVQEKPGQAFRGLIGGTNKRAPGTPARFSGSLLGGKAALTLSGAQPEDEAEYYCALWYSNLWVFGGGTKLTVL
Kd [13]: 68 nM
Kd [14]: 90.9 nM
binding result [15]: no binding
binding result [16]: no binding
binding result [17]: no binding

B7: 16D5 Fab (Fab, V domains shown)
VH: not shown
VL: QAVVTQEPSLTVSPGGTVTLTCGSSTGAVTTSNYANWVQEKPGQAFRGLIGGTNKRAPGTPARFSGSLLGGKAALTLSGAQPEDEAEYYCALWYSNLWVFGGGTKLTVL
binding result [15]: no binding
binding result [16]: no binding
binding result [17]: no binding

B8: Tim3_0021 Fab-PE24 construct (Fab, V domains shown)
VH: QVQLQQSGPQLVRPGASVQISCKASGYSFTSYLLHWLKQRPGQGLEWIGMIDPSDSETRLNQKFKDKATLTVDKSSSTAYMQLSSPTSEDSAVYYCARDGYYAWYYFDCWGQGTTLTVSS
VL: DIVLTQSPATLSVTPGDRVSLSCRASQSIGNNLHWYQQKSHESPRLLIKYASHSISGIPSKFSGTGSGTDFTLSFNSVETEDFGMYFCQQSNSWPLTFGAGTKLELK
Max. killing, Pfeiffer cells (human TIM-3 on cells [1]): 98.4%

B9: Tim3_0022 Fab-PE24 construct (Fab, V domains shown)
VH: EVQLQESGPSLVKPSQTLSLTCSVTGDSIASAYWNWIRKFPGNKLEYMGYINYSGSTYYNPSLKSRISITRDTSQNQYYLQLNSVTTEDTATYYCVTGDYFDYWGRGTTLTVSS
VL: DIQMTQSPSSLSAYLGGKVTITCKARQDVRKNIGWYQHKPGKGPRLLIWYTSTLQSGIPSRFSGSGSGRDYSFNINNLEPEDIATYYCLQYDNLPFTFGTGTKLEIR
IC50 cytotoxicity, CMK (human TIM-3 on cells [18]): 255 nM
IC50 cytotoxicity, Karpas-299 (human TIM-3 on cells [18]): 10 nM
IC50 cytotoxicity, MOLM-13 (human TIM-3 on cells [18]): 579 nM
IC50 cytotoxicity, TF-1 (human TIM-3 on cells [18]): 299 nM
IC50 cytotoxicity, primary AML CD34+ PB0135 (human TIM-3 on cells [19]): > 691 nM
IC50 cytotoxicity, primary AML CD34+ PB0136 (human TIM-3 on cells [19]): > 691 nM

B10: Farletuzumab (antibody, V domains shown)
VH: EVQLVESGGGVVQPGRSLRLSCSASGFTFSGYGLSWVRQAPGKGLEWVAMISSGGSYTYYADSVKGRFAISRDNAKNTLFLQMDSLRPEDTGVYFCARHGDDPAWFAYWGQGTPVTVSS
VL: DIQLTQSPSSLSASVGDRVTITCSVSSSISSNNLHWYQQKPGKAPKPWIYGTSNLASGVPSRFSGSGSGTDYTFTISSLQPEDIATYYCQQWSSYPYMYTFGQGTKVEIKR
Kd [20]: 0.65 nM
Kd [21]: 67.3 nM

B11: 5D9 IgG (antibody, V domains shown)
VH: QVQLVQSGAEVKKPGASVKVSCKASGYTFTSYYMHWVRQAPGQGLEWMGIINPSGGSTSYAQKFQGRVTMTRDTSTSTVYMELSSLRSEDTAVYYCARSYIDMDYWGQGTLVTVSS
VL: EIVLTQSPGTLSLSPGERATLSCRASQSVSSSYLAWYQQKPGQAPRLLIYGASSRATGIPDRFSGSGSGTDFTLTISRLEPEDFAVYYCQQDNWSPTFGQGTKVEIK
notes: human IgG1
binding result [22]: no binding (tested: 500 nM)
binding result [23]: binds

B12: Tim3_0016 Fab-PE24 construct (Fab, V domains shown)
VH: QVTLKESGPGILQPSQTLRLTCSFSGFSLSTSGMSVGWIRQPSGKGLEWLAHIWLNDDVFFNPALKSRLTISKDTSNNQVFLQIASVVTADTATYYCVRANGYLYALDYWGQGTSVTVSS
VL: QIVLTQSPAIMSASPGQKVTITCSASSSVNYTQWYQQKLGSSPKLWIYDAFKLAPGVPARFSGSGTGTSYSLTISSMEAEDAASYFCHQWSSYPWTFGGGTKLEIK
IC50 cytotoxicity, CMK (human TIM-3 on cells [18]): 225 nM
IC50 cytotoxicity, Karpas-299 (human TIM-3 on cells [18]): 4 nM
IC50 cytotoxicity, MOLM-13 (human TIM-3 on cells [18]): 459 nM
IC50 cytotoxicity, TF-1 (human TIM-3 on cells [18]): 534 nM
IC50 cytotoxicity, primary AML CD34+ PB0135 (human TIM-3 on cells [19]): > 691 nM
IC50 cytotoxicity, primary AML CD34+ PB0136 (human TIM-3 on cells [19]): > 691 nM

B13: 11F8 IgG (antibody, V domains shown)
VH: QVQLVQSGAEVKKPGSSVKVSCKASGGTFSSYAISWVRQAPGQGLEWMGGIIPIFGTANYAQKFQGRVTITADKSTSTAYMELSSLRSEDTAVYYCARAVFYRAWYSFDYWGQGTTVTVSS
VL: DIQMTQSPSTLSASVGDRVTITCRASQSISSWLAWYQQKPGKAPKLLIYDASSLESGVPSRFSGSGSGTEFTLTISSLQPDDFATYYCQQYTSPPPTFGQGTKVEIK
notes: human IgG1
binding result [23]: binds
